Experiments:
Test in all cases: analytical SEC
Conditions in all cases: cell culture supernatant of Expi293F cells; parent: est. 72; read off a plot
[1] = molecular target: B/Iowa/06/2017 HA HA1 152W
[2] = molecular target: B/Iowa/06/2017 HA HA1 T211L
[3] = molecular target: B/Iowa/06/2017 HA HA1 T218I
[4] = molecular target: B/Iowa/06/2017 HA HA2 67A
[5] = molecular target: B/Iowa/06/2017 HA HA2 91V
[6] = molecular target: B/Iowa/06/2017 HA HA2 111L
[7] = molecular target: B/Iowa/06/2017 HA HA2 E113N
[8] = molecular target: B/Iowa/06/2017 HA HA2 H22F
[9] = molecular target: B/Iowa/06/2017 HA HA2 H22W
[10] = molecular target: B/Iowa/06/2017 HA HA2 H114F
[11] = molecular target: B/Iowa/06/2017 HA HA2 H114N

Question: With “wild-type soluble hemagglutinin (HA) of influenza B/Iowa/06/2017 HA1:152W” as the substance, how does the other: trimer fraction [1] read?
Answer: 81%

Question: “wild-type soluble hemagglutinin (HA) of influenza B/Iowa/06/2017 HA1:T211L” was tested. Which other: trimer fraction [2] did it give?
Answer: 95%

Question: How did the other: trimer fraction [3] turn out when “wild-type soluble hemagglutinin (HA) of influenza B/Iowa/06/2017 HA1:T218I” was run?
Answer: 82%

Question: How did the other: trimer fraction [4] turn out when “wild-type soluble hemagglutinin (HA) of influenza B/Iowa/06/2017 HA2:67A” was run?
Answer: 64%

Question: Which other: trimer fraction [5] does the source give for “wild-type soluble hemagglutinin (HA) of influenza B/Iowa/06/2017 HA2:91V” here?
Answer: 77%

Question: Which other: trimer fraction [6] does the source give for “wild-type soluble hemagglutinin (HA) of influenza B/Iowa/06/2017 HA2:111L” here?
Answer: 55%

Question: With “wild-type soluble hemagglutinin (HA) of influenza B/Iowa/06/2017 HA2:E113N” as the substance, how does the other: trimer fraction [7] read?
Answer: 96%

Question: Which other: trimer fraction [8] does the source give for “wild-type soluble hemagglutinin (HA) of influenza B/Iowa/06/2017 HA2:H22F” here?
Answer: 91%

Question: “wild-type soluble hemagglutinin (HA) of influenza B/Iowa/06/2017 HA2:H22W” was tested. Which other: trimer fraction [9] did it give?
Answer: 81%

Question: With “wild-type soluble hemagglutinin (HA) of influenza B/Iowa/06/2017 HA2:H114F” as the substance, how does the other: trimer fraction [10] read?
Answer: 75%

Question: “wild-type soluble hemagglutinin (HA) of influenza B/Iowa/06/2017 HA2:H114N” was tested. Which other: trimer fraction [11] did it give?
Answer: 57%

Reference: PMC11497598
